In the supplement of paper PMC9112550, “Optimization of the antimicrobial peptide Bac7 by deep mutational scanning” (BMC Biology, 2022):

Test system: Escherichia coli TOP10
Test: shrunken log2 fold change of peptide-encoding DNA abundance (4.5 h post-induction vs induction); higher = less antimicrobial activity (less host growth inhibition)
Details: time post-induction: 4.5 h; library: site-saturation at positions 5, 18, 19, 20
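Note: peptides expressed intracellularly from a pBAD plasmid library in pooled LB shake-flask culture, induced with 0.3% L-arabinose, DNA abundance read by NGS, three biological replicates, DESeq2 with apeglm shrinkage.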

Sequence | shrunken log2 fold change
RRIRRRPPRLPRPRPRPILKPRP | 0.333
RRIRSRPPRLPRPRPRPLPHPRP | 0.277
RRIRKRPPRLPRPRPRPDTAPRP | 0.154
RRIRERPPRLPRPRPRPWCKPRP | 0.00398
RRIRCRPPRLPRPRPRPIYWPRP | -0.815
RRIRNRPPRLPRPRPRPCQAPRP | -0.112
RRIRNRPPRLPRPRPRPTPNPRP | 0.185
RRIRPRPPRLPRPRPRPSQLPRP | -0.0897
RRIRRRPPRLPRPRPRPWSGPRP | 0.0397
RRIRKRPPRLPRPRPRPVGYPRP | 0.00938
RRIRKRPPRLPRPRPRPDATPRP | 2.81
RRIRERPPRLPRPRPRPGIVPRP | -0.113
RRIRTRPPRLPRPRPRPYCGPRP | -0.294
RRIRWRPPRLPRPRPRPPLRPRP | 0.418
RRIRHRPPRLPRPRPRPHWCPRP | -0.0566
RRIRMRPPRLPRPRPRPLVCPRP | 0.368
RRIRGRPPRLPRPRPRPHEMPRP | 0.143
RRIRPRPPRLPRPRPRPQDNPRP | -0.548
RRIRPRPPRLPRPRPRPMYDPRP | -0.0348
RRIRGRPPRLPRPRPRPCHGPRP | -0.355
RRIRRRPPRLPRPRPRPIVCPRP | 0.539
RRIRYRPPRLPRPRPRPQWCPRP | -0.219
RRIRERPPRLPRPRPRPDEVPRP | 0.0489
RRIRKRPPRLPRPRPRPYGHPRP | -0.162
RRIRLRPPRLPRPRPRPHQYPRP | -0.297

Sequence | shrunken log2 fold change
RRIRQRPPRLPRPRPRPVWRPRP | 0.205
RRIRARPPRLPRPRPRPPRIPRP | 0.827
RRIRMRPPRLPRPRPRPTANPRP | 0.921
RRIRKRPPRLPRPRPRPMFSPRP | -0.0859
RRIRFRPPRLPRPRPRPHQCPRP | -0.315
RRIRHRPPRLPRPRPRPSMYPRP | -0.0507
RRIRGRPPRLPRPRPRPSLKPRP | 0.441
RRIRCRPPRLPRPRPRPGPTPRP | 0.848
RRIRMRPPRLPRPRPRPVEGPRP | -0.000687
RRIRMRPPRLPRPRPRPCCKPRP | -0.233
RRIRARPPRLPRPRPRPSWSPRP | 0.0204
RRIRPRPPRLPRPRPRPDLAPRP | 0.316
RRIRNRPPRLPRPRPRPTLWPRP | 0.326
RRIRMRPPRLPRPRPRPHPEPRP | 0.414
RRIRHRPPRLPRPRPRPHWQPRP | -0.00133
RRIRSRPPRLPRPRPRPLLAPRP | 0.602
RRIRKRPPRLPRPRPRPHRYPRP | 0.321
RRIRQRPPRLPRPRPRPSFLPRP | -0.355
RRIRPRPPRLPRPRPRPGQCPRP | -0.0386
RRIRLRPPRLPRPRPRPIALPRP | -0.0572
RRIRLRPPRLPRPRPRPYFAPRP | -0.233
RRIRFRPPRLPRPRPRPLSQPRP | -0.271
RRIRGRPPRLPRPRPRPYQLPRP | 0.147
RRIRARPPRLPRPRPRPVDFPRP | 0.39
RRIRTRPPRLPRPRPRPSRRPRP | 0.128

Sequence | shrunken log2 fold change
RRIRWRPPRLPRPRPRPSYAPRP | 0.0124
RRIRSRPPRLPRPRPRPKKLPRP | 0.0709
RRIRERPPRLPRPRPRPQEFPRP | -0.0119
RRIRARPPRLPRPRPRPDDVPRP | 0.0875
RRIRDRPPRLPRPRPRPNHEPRP | -0.0728
RRIRPRPPRLPRPRPRPWDLPRP | -0.0362
RRIRSRPPRLPRPRPRPVTNPRP | -0.0242
RRIRCRPPRLPRPRPRPVCFPRP | -0.141
RRIRIRPPRLPRPRPRPFLQPRP | -0.248
RRIRYRPPRLPRPRPRPCYQPRP | -0.285
RRIRMRPPRLPRPRPRPLPFPRP | -0.117
RRIRPRPPRLPRPRPRPDIRPRP | -0.0755
RRIRPRPPRLPRPRPRPTGDPRP | 0.649
RRIRARPPRLPRPRPRPDYPPRP | -0.0306
RRIRTRPPRLPRPRPRPIWLPRP | -0.201
RRIRHRPPRLPRPRPRPTFDPRP | 0.0575
RRIRTRPPRLPRPRPRPWITPRP | 0.0633
RRIRSRPPRLPRPRPRPRKVPRP | 1.58
RRIRIRPPRLPRPRPRPLTPPRP | -0.284
RRIRIRPPRLPRPRPRPIYSPRP | -0.946
RRIRDRPPRLPRPRPRPRQEPRP | 0.0935
RRIRMRPPRLPRPRPRPTEQPRP | -0.0171
RRIRMRPPRLPRPRPRPNLLPRP | -0.103
RRIRIRPPRLPRPRPRPNPEPRP | -0.0503
RRIRRRPPRLPRPRPRPDHWPRP | -0.136
